In PMC10013841 (Proceedings of the National Academy of Sciences of the …, 2023):

Molecular target: SARS-CoV-2 Spike S1 domain (amino acids 14 to 681), HEK293-produced (SARS-CoV-2, UniProt P0DTC2 14-681)
Assay: far-Western, overlay or dot blot
Details: both partners purified

B1: cyanovirin-N (natural protein)
chain: LGKFSQTCYNSAIQGSVLTSTCERTNGGYNTSSIDLNSVIENVDGSLKWQPSNFIETCRNTQLAGSSELAAECKTRAQQFVSTKINLDDHIANIDGTLKYE
notes: also called CV-N
B1: binds.
